# Bridges are numbered along the chain shown (N, C = ends). Where no end group is shown, it is not given here. [ ]: non-standard residue; d: D form. Nle = CCCC[C@H](N)C(=O)O; Dap = NC[C@H](N)C(=O)O
# B1: SEQ ID NO:4 (Tyr-c[Asp-Trp-Arg-Phe-Asn-Ala-Phe-Dpr]-Tyr) (peptide)
# peptide: YDWRFNAF[Dap]Y-NH2
# modifications: lactam 2-9; N-terminus assumed
# SMILES: C[C@@H]1NC(=O)[C@H](CC(N)=O)NC(=O)[C@H](Cc2ccccc2)NC(=O)[C@H](CCCNC(=N)N)NC(=O)[C@H](Cc2c[nH]c3ccccc23)NC(=O)[C@@H](NC(=O)[C@@H](N)Cc2ccc(O)cc2)CC(=O)NC[C@@H](C(=O)N[C@@H](Cc2ccc(O)cc2)C(N)=O)NC(=O)[C@H](Cc2ccccc2)NC1=O
# B2: SEQ ID NO:41 (Tyr-c[Asp-His-DPhe-Arg-Bip-Asn-Ala-Phe-Dpr]-Tyr) (peptide)
# peptide: YDHXRXNAFXY
# modifications: Asp-Dpr side chain lactam bridge; Dpr; DPhe; Bip; C-terminal amide (amide resin)
# B3: SEQ ID NO:21 (Ac-Nle-c[Asp-His-DArg-Phe-Phe-Lys]) (peptide)
# peptide: Ac-[Nle]DH[dR]FFK-NH2
# modifications: lactam 2-7
# B4: SEQ ID NO:6 (Tyr-c[Asp-Phe-Arg-Trp-Asn-Ala-Phe-Dpr]-Tyr) (peptide)
# peptide: YDFRWNAF[Dap]Y-NH2
# modifications: lactam 2-9
# B5: SEQ ID NO:37 (Tyr-c[Asp-His-DPhe-Lys-Trp-Asn-Ala-Phe-Dpr]-Tyr) (peptide)
# peptide: YDHXKWNAFXY
# modifications: Asp-Dpr side chain lactam bridge; Dpr; DPhe; C-terminal amide (amide resin)
# B6: SEQ ID NO:26 (Tyr-c[Asp-His-DPhe-Ala-Trp-Asn-Ala-Phe-Dpr]-Tyr) (peptide)
# peptide: YDHXAWNAFXY
# modifications: Asp-Dpr side chain lactam bridge; Dpr; DPhe; C-terminal amide (amide resin)
# B7: SEQ ID NO:23 (Ac-Nle-c[Asp-His-Arg-Phe-DPhe-Lys]) (peptide)
# peptide: Ac-[Nle]DHRF[dF]K-NH2
# modifications: lactam 2-7
# SMILES: CCCC[C@H](NC(C)=O)C(=O)N[C@H]1CC(=O)NCCCC[C@@H](C(N)=O)NC(=O)[C@@H](Cc2ccccc2)NC(=O)[C@H](Cc2ccccc2)NC(=O)[C@H](CCCNC(=N)N)NC(=O)[C@H](Cc2c[nH]cn2)NC1=O
# B8: SEQ ID NO:25 (Tyr-c[Asp-His-Ala-Arg-Trp-Asn-Ala-Phe-Dpr]-Tyr) (peptide)
# peptide: YDHARWNAF[Dap]Y-NH2
# modifications: lactam 2-10; N-terminus assumed
# SMILES: C[C@@H]1NC(=O)[C@H](CC(N)=O)NC(=O)[C@H](Cc2c[nH]c3ccccc23)NC(=O)[C@H](CCCNC(=N)N)NC(=O)[C@H](C)NC(=O)[C@H](Cc2c[nH]cn2)NC(=O)[C@@H](NC(=O)[C@@H](N)Cc2ccc(O)cc2)CC(=O)NC[C@@H](C(=O)N[C@@H](Cc2ccc(O)cc2)C(N)=O)NC(=O)[C@H](Cc2ccccc2)NC1=O
# B9: SEQ ID NO:33 (Tyr-c[Asp-His-DNal(2′)-Arg-Trp-Asn-Ala-Phe-Dpr]-Tyr) (peptide)
# peptide: YDHXRWNAFXY
# modifications: Asp-Dpr side chain lactam bridge; Dpr; DNal(2′); C-terminal amide (amide resin)
# B10: SEQ ID NO:42 (Tyr-c[Asp-His-DPhe-Arg-Tic-Asn-Ala-Phe-Dpr]-Tyr) (peptide)
# peptide: YDHXRXNAFXY
# modifications: Asp-Dpr side chain lactam bridge; Dpr; DPhe; Tic; C-terminal amide (amide resin)
# B11: SEQ ID NO:40 (Tyr-c[Asp-His-DPhe-Arg-DNal(2′)-Asn-Ala-Phe-Dpr]-Tyr) (peptide)
# peptide: YDHXRXNAFXY
# modifications: Asp-Dpr side chain lactam bridge; Dpr; DPhe; DNal(2′); C-terminal amide (amide resin)
# B12: SEQ ID NO:1 (Tyr-c[Cys-Arg-Phe-DPhe-Asn-Ala-Phe-Cys]-Tyr) (peptide)
# peptide: YCRF[dF]NAFCY-NH2
# modifications: disulfide 2-9; N-terminus assumed
# SMILES: C[C@@H]1NC(=O)[C@H](CC(N)=O)NC(=O)[C@@H](Cc2ccccc2)NC(=O)[C@H](Cc2ccccc2)NC(=O)[C@H](CCCNC(=N)N)NC(=O)[C@@H](NC(=O)[C@@H](N)Cc2ccc(O)cc2)CSSC[C@@H](C(=O)N[C@@H](Cc2ccc(O)cc2)C(N)=O)NC(=O)[C@H](Cc2ccccc2)NC1=O
# B13: SEQ ID NO:39 (Tyr-c[Asp-His-DPhe-Arg-Nal(2′)-Asn-Ala-Phe-Dpr]-Tyr) (peptide)
# peptide: YDHXRXNAFXY
# modifications: Asp-Dpr side chain lactam bridge; Dpr; DPhe; Nal(2′); C-terminal amide (amide resin)
# B14: SEQ ID NO:18 (Ac-Ser-Tyr-Ser-Nle-Glu-His-Arg-Phe-DPhe-Gly-Lys-Pro-Val) (peptide)
# peptide: Ac-SYS[Nle]EHRF[dF]GKPV-NH2
# SMILES: CCCC[C@H](NC(=O)[C@H](CO)NC(=O)[C@H](Cc1ccc(O)cc1)NC(=O)[C@H](CO)NC(C)=O)C(=O)N[C@@H](CCC(=O)O)C(=O)N[C@@H](Cc1c[nH]cn1)C(=O)N[C@@H](CCCNC(=N)N)C(=O)N[C@@H](Cc1ccccc1)C(=O)N[C@H](Cc1ccccc1)C(=O)NCC(=O)N[C@@H](CCCCN)C(=O)N1CCC[C@H]1C(=O)N[C@H](C(N)=O)C(C)C
# B15: SEQ ID NO:29 (Tyr-c[Asp-Phe-DPhe-Arg-Trp-Asn-Ala-Phe-Dpr]-Tyr) (peptide)
# peptide: YDFXRWNAFXY
# modifications: Asp-Dpr side chain lactam bridge; Dpr; DPhe; C-terminal amide (amide resin)
# B16: SEQ ID NO:30 (Tyr-c[Asp-(rac)Atc-DPhe-Arg-Trp-Asn-Ala-Phe-Dpr]-Tyr) (peptide)
# peptide: YDXXRWNAFXY
# modifications: Asp-Dpr side chain lactam bridge; Dpr; (rac)Atc; DPhe; C-terminal amide (amide resin)
# Biological target: mouse melanocortin-4 receptor (mouse, UniProt P56450 1-332)
# Assay: cell-based or functional assay
# mouse melanocortin-4 receptor, sequence (P56450 whole entry): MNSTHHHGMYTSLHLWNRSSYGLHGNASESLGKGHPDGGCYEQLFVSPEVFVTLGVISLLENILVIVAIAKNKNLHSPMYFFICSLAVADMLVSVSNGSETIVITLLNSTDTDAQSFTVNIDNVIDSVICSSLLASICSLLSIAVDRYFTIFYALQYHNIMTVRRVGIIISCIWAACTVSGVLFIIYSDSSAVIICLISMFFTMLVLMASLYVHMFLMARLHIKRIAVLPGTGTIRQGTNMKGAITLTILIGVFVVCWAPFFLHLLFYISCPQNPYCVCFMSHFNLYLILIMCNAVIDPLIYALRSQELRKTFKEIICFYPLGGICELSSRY
Binder,EC50 (agonist; Partial agonist) [µM],EC50 (agonist) [µM],pA2 (antagonist; Partial agonist)
B1,15.9,–,–
B2,–,0.0426,–
B3,–,> 100,–
B4,–,13.4,–
B5,–,8.6,–
B6,–,0.0325,–
B7,–,> 100,–
B8,–,14.7,–
B9,–,–,9.3
B10,–,0.26,–
B11,–,0.00067,–
B12,–,–,6.1
B13,–,0.00027,–
B14,–,> 100,–
B15,–,0.00064,–
B16,–,0.115,–

# Biological target: mouse melanocortin-3 receptor (mouse, UniProt P33033 1-323)
# Assay: cell-based or functional assay
# mouse melanocortin-3 receptor, sequence (P33033 whole entry): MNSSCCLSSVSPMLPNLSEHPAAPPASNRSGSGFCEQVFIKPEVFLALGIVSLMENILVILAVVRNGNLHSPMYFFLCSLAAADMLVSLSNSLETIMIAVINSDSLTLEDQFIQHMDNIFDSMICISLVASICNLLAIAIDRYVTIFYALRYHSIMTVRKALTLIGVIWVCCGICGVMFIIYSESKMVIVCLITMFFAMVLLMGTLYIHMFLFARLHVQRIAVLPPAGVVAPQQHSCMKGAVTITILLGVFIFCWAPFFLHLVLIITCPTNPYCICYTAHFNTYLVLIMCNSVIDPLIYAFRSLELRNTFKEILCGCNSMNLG
Binder,EC50 (agonist) [µM],EC50 (agonist; Partial agonist) [µM],pA2 (antagonist),pA2 (antagonist; Partial agonist)
B1,> 100,–,–,–
B2,0.45,–,–,–
B3,> 100,–,–,–
B5,30.8,–,–,–
B6,23.8,–,–,–
B8,–,30.3,–,–
B9,–,–,8.3,–
B10,3.4,–,–,–
B11,0.0065,–,–,–
B12,> 100,–,–,–
B13,0.00556,–,–,–
B14,> 100,–,–,–
B15,–,–,–,7.2
B16,–,–,6.4,–

# Biological target: mouse melanocortin-1 receptor (mouse, UniProt Q01727 1-315)
# Assay: cell-based or functional assay
# mouse melanocortin-1 receptor, sequence (Q01727 whole entry): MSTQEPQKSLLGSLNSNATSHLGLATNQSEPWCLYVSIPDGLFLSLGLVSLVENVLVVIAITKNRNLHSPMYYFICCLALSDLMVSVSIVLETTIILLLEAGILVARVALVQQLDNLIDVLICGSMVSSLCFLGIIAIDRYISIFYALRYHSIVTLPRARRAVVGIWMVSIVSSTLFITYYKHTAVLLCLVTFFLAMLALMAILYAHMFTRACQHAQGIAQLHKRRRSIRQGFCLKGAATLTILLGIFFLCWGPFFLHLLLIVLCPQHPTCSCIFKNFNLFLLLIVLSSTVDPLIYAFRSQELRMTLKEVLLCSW
row,Binder,EC50 (agonist) [µM]
1,B1,13.5
2,B2,0.0116
3,B3,> 100
4,B4,19.7
5,B5,0.68
6,B6,0.0665
7,B7,2.63
8,B8,14
9,B9,0.00556
10,B10,0.0216
11,B11,0.0002
12,B12,0.0613
13,B13,0.00053
14,B14,3.63
15,B15,0.00604
16,B16,0.69

# Biological target: mouse melanocortin-5 receptor (mouse, UniProt P41149 1-325)
# Assay: cell-based or functional assay
# mouse melanocortin-5 receptor, sequence (P41149 whole entry): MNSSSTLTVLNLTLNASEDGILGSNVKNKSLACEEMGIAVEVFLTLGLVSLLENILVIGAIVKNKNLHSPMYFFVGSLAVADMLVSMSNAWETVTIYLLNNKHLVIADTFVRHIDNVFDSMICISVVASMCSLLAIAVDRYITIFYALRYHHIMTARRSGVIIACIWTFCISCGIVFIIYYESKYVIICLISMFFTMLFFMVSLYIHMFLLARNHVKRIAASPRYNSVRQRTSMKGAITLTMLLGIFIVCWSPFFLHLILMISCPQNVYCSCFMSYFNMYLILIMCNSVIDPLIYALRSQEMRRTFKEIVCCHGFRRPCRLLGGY
row,Binder,EC50 (agonist) [µM]
1,B1,> 100
2,B2,0.00343
3,B3,> 100
4,B4,3.9
5,B5,0.8
6,B6,0.00206
7,B8,0.69
8,B9,0.0223
9,B10,0.0427
10,B11,0.00095
11,B12,0.239
12,B13,0.00193
13,B15,0.00315
14,B16,0.44

# Reference: patent publication US7084111 (UNIVERSITY OF FLORIDA RESEARCH FOUNDATION, dated 2006)
